In patent US10428140B2, “Anti-EphA4 antibody” (EISAI R&D MANAGEMENT CO., LTD., priority 2015, dated 2019):
Changes are numbered by the printed parent chain.

T1: human EphB1 (Homo sapiens, UniProt P54762)
T1 construct: a protein of the extracellular region of each human Eph receptor fused with the SEAP protein and the His tag; made in house; host or cells: Expi293F cells (culture supernatant)
T1 sequence (P54762 18-540 limits assumed): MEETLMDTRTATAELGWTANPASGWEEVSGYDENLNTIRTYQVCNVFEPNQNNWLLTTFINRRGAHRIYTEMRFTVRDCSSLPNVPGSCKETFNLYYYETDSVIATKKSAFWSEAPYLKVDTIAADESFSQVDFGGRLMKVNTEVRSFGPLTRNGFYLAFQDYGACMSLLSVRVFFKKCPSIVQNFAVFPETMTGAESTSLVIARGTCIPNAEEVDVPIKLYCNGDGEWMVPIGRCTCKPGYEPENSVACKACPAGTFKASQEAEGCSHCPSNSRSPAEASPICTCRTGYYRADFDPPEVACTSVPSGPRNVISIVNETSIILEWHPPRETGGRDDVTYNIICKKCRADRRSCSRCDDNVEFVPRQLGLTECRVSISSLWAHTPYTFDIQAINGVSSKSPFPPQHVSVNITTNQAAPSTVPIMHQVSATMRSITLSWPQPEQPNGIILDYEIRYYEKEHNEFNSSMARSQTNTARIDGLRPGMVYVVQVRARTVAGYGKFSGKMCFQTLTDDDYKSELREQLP

T2: human EphB4 (Homo sapiens, UniProt P54760)
T2 construct: a protein of the extracellular region of each human Eph receptor fused with the SEAP protein and the His tag; made in house; host or cells: Expi293F cells
T2 sequence (P54760 16-539 limits assumed): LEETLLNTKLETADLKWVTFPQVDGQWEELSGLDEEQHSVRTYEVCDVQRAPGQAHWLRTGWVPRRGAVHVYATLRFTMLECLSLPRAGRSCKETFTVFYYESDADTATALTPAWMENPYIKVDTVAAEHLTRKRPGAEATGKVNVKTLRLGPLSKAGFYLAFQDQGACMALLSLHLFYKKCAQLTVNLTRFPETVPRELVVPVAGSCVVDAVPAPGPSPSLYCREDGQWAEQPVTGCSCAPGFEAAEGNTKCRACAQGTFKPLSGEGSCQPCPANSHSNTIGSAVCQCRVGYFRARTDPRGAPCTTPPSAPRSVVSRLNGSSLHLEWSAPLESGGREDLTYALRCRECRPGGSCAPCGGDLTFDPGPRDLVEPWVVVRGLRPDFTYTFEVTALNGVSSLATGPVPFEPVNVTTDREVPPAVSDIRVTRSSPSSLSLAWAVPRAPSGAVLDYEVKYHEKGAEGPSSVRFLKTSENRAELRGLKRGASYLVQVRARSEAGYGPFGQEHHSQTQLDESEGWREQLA

T3: human EphB6 (Homo sapiens, UniProt O15197)
T3 construct: a protein of the extracellular region of each human Eph receptor fused with the SEAP protein and the His tag; made in house; host or cells: Expi293F cells
T3 sequence (O15197 32-594 limits assumed): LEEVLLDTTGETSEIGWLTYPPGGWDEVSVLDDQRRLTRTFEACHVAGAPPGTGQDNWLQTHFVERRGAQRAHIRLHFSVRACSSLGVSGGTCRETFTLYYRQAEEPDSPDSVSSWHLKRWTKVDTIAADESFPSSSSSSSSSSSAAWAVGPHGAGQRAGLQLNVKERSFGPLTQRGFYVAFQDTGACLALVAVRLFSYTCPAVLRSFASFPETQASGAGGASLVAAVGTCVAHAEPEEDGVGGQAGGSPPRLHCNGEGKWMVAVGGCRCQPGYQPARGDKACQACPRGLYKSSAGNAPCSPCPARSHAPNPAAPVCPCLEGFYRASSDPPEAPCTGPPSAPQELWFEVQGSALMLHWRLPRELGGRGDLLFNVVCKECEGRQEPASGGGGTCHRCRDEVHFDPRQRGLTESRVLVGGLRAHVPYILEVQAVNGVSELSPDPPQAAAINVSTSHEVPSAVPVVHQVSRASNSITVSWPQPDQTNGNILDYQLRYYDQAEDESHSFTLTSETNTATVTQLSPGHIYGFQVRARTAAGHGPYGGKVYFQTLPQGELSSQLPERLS

B1: 152 (antibody, V domains shown)
VH: QVQLVQSGSELKKPGASVKVSCKASGYTFTDYSMHWVRQAPGQGLEWMGWINTETGEPTYAQGFTGRFVFSLDTSVSTAYLQISSLKAEDTAVYYCARIPLYYYGSRYWYFDVWGQGTTVTVSS
VL: DIQMTQSPSSLSASVGDRVTITCRASENIYRNLAWYQQKPGKAPKLLLYAATNLADGVPSRFSGSGSGTDYTLTISSLQSEDFATYYCQHFWGTPWTFGQGTKVEIK
modifications: synthetic humanized antibody heavy chain variable region sequence; synthetic humanized antibody light chain variable region sequence
B2: 155 (antibody, V domains shown)
VH: B1 VH with V2I, E46K, Q62D, G63D, T65K
VL: B1 VL
modifications: synthetic humanized antibody heavy chain variable region sequence; synthetic humanized antibody light chain variable region sequence
B3: 154 (antibody, V domains shown)
VH: B1 VH with Q62D, G63D, T65K
VL: B1 VL
modifications: synthetic humanized antibody heavy chain variable region sequence; synthetic humanized antibody light chain variable region sequence
B4: 151 (antibody, V domains shown)
VH: B1 VH with V2I, E46K
VL: B1 VL
modifications: synthetic humanized antibody heavy chain variable region sequence; synthetic humanized antibody light chain variable region sequence
B5: 153 (antibody, V domains shown)
VH: B1 VH with E46K
VL: B1 VL
modifications: synthetic humanized antibody heavy chain variable region sequence; synthetic humanized antibody light chain variable region sequence
B6: 159 (antibody, V domains shown)
VH: B1 VH with E46K, Q62D, G63D, T65K
VL: B1 VL with K45Q, S80P
modifications: synthetic humanized antibody heavy chain variable region sequence; synthetic humanized antibody light chain variable region sequence
B7: 145 (antibody, V domains shown)
VH: B1 VH with E46K, Q62D, G63D, T65K
VL: B1 VL
modifications: synthetic humanized antibody heavy chain variable region sequence; synthetic humanized antibody light chain variable region sequence
B8: 158 (antibody, V domains shown)
VH: B1 VH with E46K
VL: B1 VL with K45Q, S80P
modifications: synthetic humanized antibody heavy chain variable region sequence; synthetic humanized antibody light chain variable region sequence
B9: 160 (antibody, V domains shown)
VH: B1 VH with V2I, E46K, Q62D, G63D, T65K
VL: B1 VL with K45Q, S80P
modifications: synthetic humanized antibody heavy chain variable region sequence; synthetic humanized antibody light chain variable region sequence
B10: 144 (antibody, V domains shown)
VH: B1 VH with Q62D, G63D, T65K
VL: B1 VL with K45Q, S80P
modifications: synthetic humanized antibody heavy chain variable region sequence; synthetic humanized antibody light chain variable region sequence
B11: 157 (antibody, V domains shown)
VH: B1 VH
VL: B1 VL with K45Q, S80P
modifications: synthetic humanized antibody heavy chain variable region sequence; synthetic humanized antibody light chain variable region sequence

What follows are molecules tested against T1, human EphB1 (assay: Selectivity ELISA of humanized antibodies for human Eph receptor). Settings: coated protein 1 nM.
Type: binding
Method in brief: (§1)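 His-tagged SEAP fusions of each human Eph receptor extracellular region, from Expi293F supernatants, were captured at 1 nM on anti-His-coated wells. Humanized antibody was bound 1 h at room temperature, then detected with HRP […] IgG. TMB development was acid-stopped and read at 450 nm.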

For B1, which “hEphB1-SEAP-: absorbance at 450 nm, percentage with respect to hEphA4-SEAP-His as 100%” value is on record?
Its value is 5.9%.

For B2, which “hEphB1-SEAP-: absorbance at 450 nm, percentage with respect to hEphA4-SEAP-His as 100%” value is on record?
The value was 5.4%.

Which “hEphB1-SEAP-: absorbance at 450 nm, percentage with respect to hEphA4-SEAP-His as 100%” value does the source give for B3 here?
Its value is 6.3%.

With B4 as the molecule, how does the “hEphB1-SEAP-: absorbance at 450 nm, percentage with respect to hEphA4-SEAP-His as 100%” value read?
The value was 6.8%.

For B5, which “hEphB1-SEAP-: absorbance at 450 nm, percentage with respect to hEphA4-SEAP-His as 100%” value is on record?
The value was 6.0%.

Which “hEphB1-SEAP-: absorbance at 450 nm, percentage with respect to hEphA4-SEAP-His as 100%” value does the source give for B6 here?
The value was 5.3%.

Which “hEphB1-SEAP-: absorbance at 450 nm, percentage with respect to hEphA4-SEAP-His as 100%” value does the source give for B7 here?
Its value is 6.5%.

Which “hEphB1-SEAP-: absorbance at 450 nm, percentage with respect to hEphA4-SEAP-His as 100%” value does the source give for B8 here?
Its value is 6.2%.

B9 was tested. Which “hEphB1-SEAP-: absorbance at 450 nm, percentage with respect to hEphA4-SEAP-His as 100%” value did it give?
The value was 6.1%.

How did the “hEphB1-SEAP-: absorbance at 450 nm, percentage with respect to hEphA4-SEAP-His as 100%” value turn out when B10 was run?
The value was 5.7%.

For B11, which “hEphB1-SEAP-: absorbance at 450 nm, percentage with respect to hEphA4-SEAP-His as 100%” value is on record?
Its value is 6.1%.

The molecules below were run against T2, human EphB4 in the same assay as above. Settings: coated protein 1 nM.
Type: binding
Method in brief: as §1

With B1 as the molecule, how does the “hEphB4-SEAP-: absorbance at 450 nm, percentage with respect to hEphA4-SEAP-His as 100%” value read?
The value was 5.9%.

B2 was tested. Which “hEphB4-SEAP-: absorbance at 450 nm, percentage with respect to hEphA4-SEAP-His as 100%” value did it give?
Its value is 5.7%.

With B3 as the molecule, how does the “hEphB4-SEAP-: absorbance at 450 nm, percentage with respect to hEphA4-SEAP-His as 100%” value read?
The value was 6.4%.

How did the “hEphB4-SEAP-: absorbance at 450 nm, percentage with respect to hEphA4-SEAP-His as 100%” value turn out when B4 was run?
Its value is 7.4%.

B5 was tested. Which “hEphB4-SEAP-: absorbance at 450 nm, percentage with respect to hEphA4-SEAP-His as 100%” value did it give?
The value was 6.0%.

Which “hEphB4-SEAP-: absorbance at 450 nm, percentage with respect to hEphA4-SEAP-His as 100%” value does the source give for B6 here?
Its value is 5.4%.

Which “hEphB4-SEAP-: absorbance at 450 nm, percentage with respect to hEphA4-SEAP-His as 100%” value does the source give for B7 here?
Its value is 6.7%.

For B8, which “hEphB4-SEAP-: absorbance at 450 nm, percentage with respect to hEphA4-SEAP-His as 100%” value is on record?
The value was 6.5%.

With B9 as the molecule, how does the “hEphB4-SEAP-: absorbance at 450 nm, percentage with respect to hEphA4-SEAP-His as 100%” value read?
Its value is 6.3%.

For B10, which “hEphB4-SEAP-: absorbance at 450 nm, percentage with respect to hEphA4-SEAP-His as 100%” value is on record?
The value was 5.7%.

B11 was tested. Which “hEphB4-SEAP-: absorbance at 450 nm, percentage with respect to hEphA4-SEAP-His as 100%” value did it give?
The value was 6.5%.

Each molecule was assayed against T3, human EphB6 in the same assay as above. Settings: coated protein 1 nM.
Type: binding
Method in brief: as §1

How did the “hEphB6-SEAP-: absorbance at 450 nm, percentage with respect to hEphA4-SEAP-His as 100%” value turn out when B1 was run?
The value was 5.9%.

Which “hEphB6-SEAP-: absorbance at 450 nm, percentage with respect to hEphA4-SEAP-His as 100%” value does the source give for B2 here?
Its value is 5.6%.

For B3, which “hEphB6-SEAP-: absorbance at 450 nm, percentage with respect to hEphA4-SEAP-His as 100%” value is on record?
The value was 6.4%.

With B4 as the molecule, how does the “hEphB6-SEAP-: absorbance at 450 nm, percentage with respect to hEphA4-SEAP-His as 100%” value read?
Its value is 7.1%.

How did the “hEphB6-SEAP-: absorbance at 450 nm, percentage with respect to hEphA4-SEAP-His as 100%” value turn out when B5 was run?
The value was 6.2%.

With B6 as the molecule, how does the “hEphB6-SEAP-: absorbance at 450 nm, percentage with respect to hEphA4-SEAP-His as 100%” value read?
Its value is 5.5%.

B7 was tested. Which “hEphB6-SEAP-: absorbance at 450 nm, percentage with respect to hEphA4-SEAP-His as 100%” value did it give?
Its value is 6.6%.

With B8 as the molecule, how does the “hEphB6-SEAP-: absorbance at 450 nm, percentage with respect to hEphA4-SEAP-His as 100%” value read?
Its value is 6.3%.

Which “hEphB6-SEAP-: absorbance at 450 nm, percentage with respect to hEphA4-SEAP-His as 100%” value does the source give for B9 here?
The value was 6.2%.

With B10 as the molecule, how does the “hEphB6-SEAP-: absorbance at 450 nm, percentage with respect to hEphA4-SEAP-His as 100%” value read?
The value was 5.9%.

Which “hEphB6-SEAP-: absorbance at 450 nm, percentage with respect to hEphA4-SEAP-His as 100%” value does the source give for B11 here?
The value was 6.3%.
